B1: Azoarcus group I ribozyme (parent)
chain: GUGCCUUGCGCCGGGAAACCACGCAAGGGAUGGUGUCAAAUUCGGCGAAACCUAAGCGCCCGCCCGGGCGUAUGGCAACGCCGAGCCAAGCUUCGGCGCCUGCGCCGAUGAAGGUGUAGAGACUAGACGGCACCCACCUAAGGCAAACGCUAUGGUGAAGGCAUAGUCCAGGGAGUGGCGAAAGUCACACAAACCGG

Variants of: B1
Test: reverse-splicing fitness (ratio to wild type); higher = more active; in vitro selection; Mg2+ level not given
Procedure, shortened: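 An in vitro group I ribozyme library with randomized positions was T7-transcribed and gel-purified. In triplicate, 10 pmol RNA in EPPS pH 7.5 was reacted with 50 pmoles of a 30-nt RNA substrate for 1 h at 37 °C across several added MgCl2 levels (1–48 mM), then stopped with EDTA. Products were reverse transcribed from a substrate-complementary primer, PCR-amplified and sequenced (HiSeq 4000). Fitness is a variant's read proportion after selection over that before, normalised to wild type.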
Variant GUGCCUUGCGCCGGGAAACCACGCAAGGGAUGGUGUCAAAUUCGGCGAAACCUAAGCGCCCGCCCGGGCGUAUGGCAACGCUGAGCCAAGCUUCGGCGCCUGCGCCGAUGGAGGUGUAGUGACUAGACGGCACCCACCUAAGGCAAACGUUAUGGUGAAGGCAUAGUCUAGGGAGUGGCGAAAGUCACACAAACCGG [C82U A111G A120U C150U C169U] has a reverse-splicing fitness of 0.00388. Variant GUGCCUUGCGCCGGGAAACCACGCAAGGGAUGGUGUCAAAUUCGGCGAAACCUAAGCGCCCGCCCGGGCGUAUGGCAACGCUGAGCCAAGCUUCGGCGCCUGCGCCGAUGGAGGUGUAGUGACUAGACGGCACCCACCUAAGGCAAACGGUAUGGUGAAGGCAUAGUCCAGGGAGCGGCGAAAGUCACACAAACCGG [C82U A111G A120U C150G U176C] has a reverse-splicing fitness of 0.0053. Variant GUGCCUUGCGCCGGGAAACCACGCAAGGGAUGGUGUCAAAUUCGGCGAAACCUAAGCGCCCGCCCGGGCGUAUGGCAACGCUGAGCCAAGCUUCGGCGCCUGCGCCGAUGGAGGUGUAGUGACUAGACGGCACCCACCUAAGGCAAACGGUAUGGUGAAGGCAUAGUCCAGGGAGGGGCGAAAGUCACACAAACCGG [C82U A111G A120U C150G U176G] has a reverse-splicing fitness of 0.00216. Work on GUGCCUUGCGCCGGGAAACCACGCAAGGGAUGGUGUCAAAUUCGGCGAAACCUAAGCGCCCGCCCGGGCGUAUGGCAACGCUGAGCCAAGCUUCGGCGCCUGCGCCGAUGGAGGUGUAGUGACUAGACGGCACCCACCUAAGGCAAACGGUAUGGUGAAGGCAUAGUCCAGGGAGAGGCGAAAGUCACACAAACCGG [C82U A111G A120U C150G U176A] yielded a reverse-splicing fitness of 0.00422. Variant GUGCCUUGCGCCGGGAAACCACGCAAGGGAUGGUGUCAAAUUCGGCGAAACCUAAGCGCCCGCCCGGGCGUAUGGCAACGCUGAGCCAAGCUUCGGCGCCUGCGCCGAUGGAGGUGUAGUGACUAGACGGCACCCACCUAAGGCAAACGUUAUGGUGAAGGCAUAGUCGAGGGAGCGGCGAAAGUCACACAAACCGG [C82U A111G A120U C150U C169G U176C] has a reverse-splicing fitness of 0.00322. In the case of GUGCCUUGCGCCGGGAAACCACGCAAGGGAUGGUGUCAAAUUCGGCGAAACCUAAGCGCCCGCCCGGGCGUAUGGCAACGCUGAGCCAAGCUUCGGCGCCUGCGCCGAUGGAGGUGUAGUGACUAGACGGCACCCACCUAAGGCAAACGUUAUGGUGAAGGCAUAGUCGAGGGAGGGGCGAAAGUCACACAAACCGG [C82U A111G A120U C150U C169G U176G], the reverse-splicing fitness is reported as 0.00216. With GUGCCUUGCGCCGGGAAACCACGCAAGGGAUGGUGUCAAAUUCGGCGAAACCUAAGCGCCCGCCCGGGCGUAUGGCAACGCUGAGCCAAGCUUCGGCGCCUGCGCCGAUGGAGGUGUAGUGACUAGACGGCACCCACCUAAGGCAAACGUUAUGGUGAAGGCAUAGUCGAGGGAGAGGCGAAAGUCACACAAACCGG [C82U A111G A120U C150U C169G U176A] the reverse-splicing fitness was 0.00733. Work on GUGCCUUGCGCCGGGAAACCACGCAAGGGAUGGUGUCAAAUUCGGCGAAACCUAAGCGCCCGCCCGGGCGUAUGGCAACGCUGAGCCAAGCUUCGGCGCCUGCGCCGAUGGAGGUGUAGUGACUAGACGGCACCCACCUAAGGCAAACGGUAUGGUGAAGGCAUAGUCUAGGGAGCGGCGAAAGUCACACAAACCGG [C82U A111G A120U C150G C169U U176C] yielded a reverse-splicing fitness of 0.00396. Work on GUGCCUUGCGCCGGGAAACCACGCAAGGGAUGGUGUCAAAUUCGGCGAAACCUAAGCGCCCGCCCGGGCGUAUGGCAACGCUGAGCCAAGCUUCGGCGCCUGCGCCGAUGGAGGUGUAGUGACUAGACGGCACCCACCUAAGGCAAACGGUAUGGUGAAGGCAUAGUCUAGGGAGGGGCGAAAGUCACACAAACCGG [C82U A111G A120U C150G C169U U176G] yielded a reverse-splicing fitness of 0.00234. GUGCCUUGCGCCGGGAAACCACGCAAGGGAUGGUGUCAAAUUCGGCGAAACCUAAGCGCCCGCCCGGGCGUAUGGCAACGCUGAGCCAAGCUUCGGCGCCUGCGCCGAUGGAGGUGUAGUGACUAGACGGCACCCACCUAAGGCAAACGUUAUGGUGAAGGCAUAGUCAAGGGAGAGGCGAAAGUCACACAAACCGG [C82U A111G A120U C150U C169A U176A] showed a reverse-splicing fitness of 0.00365. With GUGCCUUGCGCCGGGAAACCACGCAAGGGAUGGUGUCAAAUUCGGCGAAACCUAAGCGCCCGCCCGGGCGUAUGGCAACGCUGAGCCAAGCUUCGGCGCCUGCGCCGAUGGAGGUGUAGUGACUAGACGGCACCCACCUAAGGCAAACGUUAUGGUGAAGGCAUAGUCAAGGGAGGGGCGAAAGUCACACAAACCGG [C82U A111G A120U C150U C169A U176G] the reverse-splicing fitness was 0.00203. With GUGCCUUGCGCCGGGAAACCACGCAAGGGAUGGUGUCAAAUUCGGCGAAACCUAAGCGCCCGCCCGGGCGUAUGGCAACGCUGAGCCAAGCUUCGGCGCCUGCGCCGAUGGAGGUGUAGUGACUAGACGGCACCCACCUAAGGCAAACGUUAUGGUGAAGGCAUAGUCAAGGGAGCGGCGAAAGUCACACAAACCGG [C82U A111G A120U C150U C169A U176C] the reverse-splicing fitness was 0.00318. GUGCCUUGCGCCGGGAAACCACGCAAGGGAUGGUGUCAAAUUCGGCGAAACCUAAGCGCCCGCCCGGGCGUAUGGCAACGCUGAGCCAAGCUUCGGCGCCUGCGCCGAUGGAGGUGUAGUGACUAGACGGCACCCACCUAAGGCAAACGCUAUGGUGAAGGCAUAGUCAAGGGAGGGGCGAAAGUCACACAAACCGG [C82U A111G A120U C169A U176G] showed a reverse-splicing fitness of 0.00189. Variant GUGCCUUGCGCCGGGAAACCACGCAAGGGAUGGUGUCAAAUUCGGCGAAACCUAAGCGCCCGCCCGGGCGUAUGGCAACGCUGAGCCAAGCUUCGGCGCCUGCGCCGAUGGAGGUGUAGUGACUAGACGGCACCCACCUAAGGCAAACGCUAUGGUGAAGGCAUAGUCAAGGGAGCGGCGAAAGUCACACAAACCGG [C82U A111G A120U C169A U176C] has a reverse-splicing fitness of 0.00211. With GUGCCUUGCGCCGGGAAACCACGCAAGGGAUGGUGUCAAAUUCGGCGAAACCUAAGCGCCCGCCCGGGCGUAUGGCAACGCUGAGCCAAGCUUCGGCGCCUGCGCCGAUGGAGGUGUAGUGACUAGACGGCACCCACCUAAGGCAAACGCUAUGGUGAAGGCAUAGUCAAGGGAGAGGCGAAAGUCACACAAACCGG [C82U A111G A120U C169A U176A] the reverse-splicing fitness was 0.0024.

Source: the RNAGym collection of RNA variant scans (doi:10.1093/molbev/msab373)
